According to the DeepSol protein solubility set:

assay: soluble on expression in E. coli; label from the status in PepcDB or PDB records

**Q.** Which “soluble on expression in E. coli” value does the source give for “MGSDKIHHHHHHMHVGIFADGGYEKGMGHVVRMKRLAEGLKQRCLITFYTNQDSEAFLHEEHWQVIVKPELQQHEFILREIKSKKLDLLLFDILGAPAELLKKIKTETDAKIVLFEEKNGKSIQYSDAVINGIYGDIRSRVYVQGNTRIYEGPDYLILHPAFQAAREDYTLKKDCRNILVALGGSDPKQLIFKVLAAADQVPDIKDKNMMFVMGSASPHQEAVRRRIEKKPQYKMIEQTNDMAGLMKQADAAIVAGGISLYEAICIGVPCLVLSQVEHQTATAKTFADQGAALDLGLGELVPDETLIYQMSRIMSSYPLRLSLHKGGRPLVDGKGIIRVTAILQDLYEQEI” here?
**A.** not soluble

**Q.** With “MGSDKIHHHHHHMIDSSLVLDAETIRNFVKSVNDADSMDKVRAAVSSFAEELRSKSSENGISIREDVLKSILQRIASSHTTELARHYANEVYNMAFISRKLPYSDIDLSRWREYDFVITDSLWLFDKRDYRGSKLGWYWGNFVPQIPRQLILRFSRKDEWVLDPFSGSGTTLIEAKKLGRNSLGIEINEEVCKKSLEILNSIDGDGFSTAISGDSASVNLTKVMEYYGIPEFNLVIMHPPYHDIIKFTDIGGDLSNARDTKEFLSMLGKVTRNVSKYLQKGRFLALVIGDKYSNGEWIPLGFYSMQKVMDQGFRLKSTIVKNFEYTRGKASSSDLWRYRALAGGFYVFKHEYIFVFQKT” as the sequence, how does the “soluble on expression in E. coli” value read?
**A.** not soluble

**Q.** For “MGSDKIHHHHHHMIDVIIVGGGPTGTMLASELRLHGVHTVVVEKRAEPTRIVRGLGLHVRSIEIMDQRGLLERFLAHGTKHPVGGYFAGIMKPWPKSLDTAHPYILGIPQPTTDRLLEERASELGADIRRGWELVGLSQDEDGVTAQLADGTQLRARYLVGCDGGRSTVRTLLGVGFPGESATTEWLLGEVKATASPETVAAVMAKVRQTQLGFAMGPLDDGVYRAVVPAAHVSEDRAAPPTLEEFAQRLREVTGTDFGVHSPRWLSRFNDATRQAERYRVGRVLLAGDAAHIHAPLGGQGLNLGIQDAFNLGWKLAAAVNGWAPEGLLDSYHTERHPVAAEVLDNTLAQSAFMSTDPRARAAHRLLLELMDFEEVNRHVMEKITAVGVRYDFGDGHALLGRRLRDVRLGQGRLYERMRHGRGVLLDRTGRLSVAGWADRVDHVADSAAEIDVPALLLRPDGHVAWIGEDQDDLLAHLPRWFGDPAA”, which “soluble on expression in E. coli” value is on record?
**A.** not soluble

**Q.** For “MGSDKIHHHHHHMIEFKEVSKRFGSTLALDKLDANFPTGKIIGLFGPNGAGKSTSIKMIAGLNRPDQGQVVIDGELPRMSKAQIAYLPEIDHLYPWMTIGQAAGFTRSFYVDWDNDKYHELLKYLNLNAEMKIGKISKGQRAKTKLLLTAARRAPYLLMDEPLSGIDILTREEIINTLVRDYREGEQTIIISTHEIAEVESLVDEVFFIDQGKIMLSGSAEEFRVERGQSLVEIMKEAFRHADQ”, which “soluble on expression in E. coli” value is on record?
**A.** not soluble

**Q.** Which “soluble on expression in E. coli” value does the source give for “MGSDKIHHHHHHMIETKFKQTELCRIPEDWDIGTFADFLITFSAGATPYRGIPDNFVGTIPWISSGELNYCEIENTREHISSDAQKNTHLTLHKPGTFLIAITGLEAAGTRGRCAFVKTPATTNQSCLAINSTDKMTVKYLFWFYRQWSDFLAFNFSQGSKQQSFTAEIVKRLPLYAPKYKEQEKIAEALSDVDKLIRELDTLIEKKRAVMQGTMQELLTAHRRLPGFVHPWRNTLVEKCCKITTGESNTRDQIESGIYPFYIRSATVMRSNSYIFDCEGVITIGDGQIGKVFHYVNGKFDLHQRCYLMYDFDDIDVKFFYFLFSFFFYNRVIALSAKATVDSVRRNMIAKMKINIPSTMQEQKAIANILSDMNDGIEAIEAKRDKYIAVRQGMMQQLLTGKIRLI” here?
**A.** not soluble

**Q.** Which “soluble on expression in E. coli” value does the source give for “MGSDKIHHHHHHMIFTLPNTTTQEIAKTLVKIRDTGGQVTTSRVLTLIVVARDTSDVEGIIRATNEASQEHPSRVIILVAGSHEGESQVDAEVRIGGDAGASEMILIKLAGRVAKHLVHVVTPLLLPDTPIVAWWPSSAPINPAEDPIGKIAQRRITDSHFDPPVDALYNRRNHYAPGDSDFSWARLTPWRGVLASSLDQAPYEMVQDVRVYGESDCPSVDLAAGWLCERLGISVERHNYGSGSAAFDDAGLAKIPVKRIELERPSGCVVIEALDDDQTLSVSIPGRSTAHVAVTRRSQADCLAEELRHLDPDIAYARALRGLSRVSYPTQ” here?
**A.** not soluble

**Q.** With “MGSDKIHHHHHHMIGAWCFLDHAGPVTFPAGNGLDVGPHPHIGLQTFTWMIEGTMMHTDSLGSKQLIRPKQVNLMTAGHGISHTEVAPDTETQMHAAQLWIALPDHKRNMDPKFEHYPDLPVVEKDGLEFTVLVGEYLETTSPVVVHTPLVGVDLIATQDTKTRIPLNPEFEYGFMALDGVAHVNGHELTADNMVVLDTGLNEIEIEVKKGNRVLLIGGEPFETPILLWWNFVARTMDDLKEAREQWVNHDVRFGEIPDYVGARLEAPVLPDQMRASK” as the sequence, how does the “soluble on expression in E. coli” value read?
**A.** not soluble

**Q.** For “MGSDKIHHHHHHMIHFSINKNLFLQALNTTKRAISSKNAIPILSTVKIDVTNEGITLIGSNGQISIENFISQKNEDAGLLITSLGSILLEASFFINVVSSLPDVTLDFKEIEQNQIVLTSGKSEITLKGKDSEQYPRIQEISASTPLILETKLLKKIINETAFAASTQESRPILTGVHFVLSQHKELKTVATDSHRLSQKKLTLEKNSDDFDVVIPSRSLREFSAVFTDDIETVEIFFANNQILFRSENISFYTRLLEGNYPDTDRLIPTDFNTTITFNVVNLRQSMERARLLSSATQNGTVKLEIKDGVVSAHVHSPEVGKVNEEIDTDQVTGEDLTISFNPTYLIDSLKALNSEKVTISFISAVRPFTLVPADTDEDFMQLITPVRTN”, which “soluble on expression in E. coli” value is on record?
**A.** soluble

**Q.** Which “soluble on expression in E. coli” value does the source give for “MGSDKIHHHHHHMIINRSKDSSSNEISFVSKDMGFLLTQSEVSYNFKDKLVEDIAKQVFAENRLSVGTIAKTNVKYTKMFIGVNGYDTIMSAYTEASKKTKKKYMIEANLDKFNVIEKGTVTLSVMFEEGFNIINTTFSESMENVKNKVIVVDQYGSKISEKIDNEIFKEVNVIMQKVIQQQENQDVDIDSEFNGIEKSCSLKGYGDVSCITGRGVKVKDSYTKLVGLFYIDTDKHTWQNGEYQIELELNFQNLMDEKSAGQDEPKEESNLGGEDYAGGKEFTAEFTAYCPRKEEGGDTDCRKKKLDPSKKTCAAPMVGKYEQTYYTKEFLNKHPLLNYGDEIQVITGVSGRDGVYKVNDVGPAITIEKNGTYHIDILFGNVEEASKFGRRKGKIIIGGYSGNVSDKAKIVISEAKKHLGKPYKWGGNGPSSFDCSGLMVYCFKKVNVSLPRTSNQQSKKGKKVEQKNLQAGDLVFFHNPVSHVGLYIGNGEFLHAPQKGDVVKISKLSSRRDFNTARRVL” here?
**A.** not soluble

**Q.** For “MGSDKIHHHHHHMILAAKNSVFVHIRRGDYVGIGCQLGIDYQKKALEYMAKRVPNMELFVFCEDLEFTQNLDLGYPFMDMTTRDKEEEAYWDMLLMQSCQHGIIANSTYSWWAAYLIENPEKIIIGPKHWLFGHENILCKEWVKIESHFEVKSQKYNA”, which “soluble on expression in E. coli” value is on record?
**A.** not soluble

**Q.** Which “soluble on expression in E. coli” value does the source give for “MGSDKIHHHHHHMILCAGEALIDMLPRKTEAGEAAFAPYPGGSVFNTAVALSRLGTKTEFFSGLSTDLFGERLDSVLMANGVGSALAHRNDRPTTLAFVTLTDGHASYAFYDENTAGRMLTEADLPAIPETAKACFFGGISLAVEPCADAYAALIGRANDLGRVVMIDPNIRPGFIADEARFRARLDQMLAQTDIIKASDEDLRWLLGDMSLPELAEALRAKGPSVVLVTQGAAGVTGFYAGGEIHVDAEAVTVVDTVGAGDTFNAGVLAGLDDAGALDKAMIAKGLDAETLRGAMELGVRASAVTVTRAGANPPRRDELS” here?
**A.** not soluble

**Q.** Which “soluble on expression in E. coli” value does the source give for “MGSDKIHHHHHHMILLNKPVAPNLQKLNSYLERVHDTGWYTNFGPLHNELTEKLEEYLGVSNLLLVSNGTLAIQLAAKVFNVKQTITTPFSFVATSSSLLWQGIDLAYSDIERSSLNICPEELEKNWKSNDSYDSLLATHVYGNPCDVQKIDEIAKKYNKKIMYDAAHAFGIKVGNKSVLSFGDASTLSFHATKVFHTVEGGAVIFKDRNHFDEAKSLINFGIQNDGTLGTPGINAKLNEYQAAVGLCLLESIDDIICHRSNLFEIYRKELSNVIELPLWHRDSNYNGAYMPILPSTEVERLKIGEQLKANNIQFRRYFYPSLDKAYLRVKSFNCPVSNYIAENALCLPLHMYMTKEDVLKITATIKEIY” here?
**A.** not soluble

**Q.** With “MGSDKIHHHHHHMILLSFDIEEFDVPKEHQVDISMEEQIKVSVEGTTRILDCLERNQVKATFFCTANFALHAPDIIKRIQEGGHEIASHGFYHWTFEVEDLKRSKDQLEEITGTKVYGYRQARMMPVSEKAVYEAGYIYNSSLNPTFIPGRYMRLSTPRTPFIKDRVMQMPASVTPLLRFPLFWLSCHNLPASLYRWLCKYTHRHDGYFVTYFHPWEFYPLNEHPEWKLPFIIRNHAGEGMEKRLDAFILYFRKKNVSFGRFIDYIKLNKDIMK” as the sequence, how does the “soluble on expression in E. coli” value read?
**A.** not soluble

**Q.** For “MGSDKIHHHHHHMIMKFFDREREINEILGILDETPDNIYFIYGPINSGKTTLMMEIINRLKDDKKYRIFYYNLRGVRISSYSDFFDIMFEIREDNKFKQMVKDADVLVEGIKFIEKTAKLFNESIILPSDLAKVILSKQKGFDVFRYLERVFREMNKKGLKPVIIIDELQRLKGLKSNGELIDDLFNFFVRLTKELHITHCFCLSSDSLFIEYVYDRAELRGRADYILVDDFDKETALKFMDFLSEDILGRKLSEDEKELIYSYVGGKPKDVYDVIIKLKLGKELKDILEFMLKEEIQKLKYFLEDVKEDDEELYNKIVDALKIFKENYEIEDIKIPKNIREFLVKKNILFLNPIEGTLKPQSFLVWNAIKKLLNGH”, which “soluble on expression in E. coli” value is on record?
**A.** not soluble

**Q.** Which “soluble on expression in E. coli” value does the source give for “MGSDKIHHHHHHMIMKVVVKVGSNLLVGSSGLRKSYIAELCREVARLKSQGHEISIITSGARAAGFTYLGKGKRTQDLHIKQALCAVGQVQLMKVYENAFDFYGIKIAQILLTRDTFSNRKRYLNLRNTLIGLSEFDVVPIVNENDTVATEEITLGDNDTLAAMFSIAWDADFLVLFTTVDGVIDENGKLVERFDESVKLKDMGKSSWGTGGIRSKIESALMASRCGVKATICSGNDVSNLTRFVKGEPVGTVFEPQGRLKAKKAWIAFLSEPAGKIYVNKGAEEALKSGNSLLPVGVTGVEGTFDVGDVVEIVNEEGELVGRGIVNYSSSDLEKIAGHKSSDLKKILGYEGNKVVVHIDNMWVA” here?
**A.** not soluble

**Q.** With “MGSDKIHHHHHHMINPIILPLDKVRNPRDLGSYVGYNGRKIKMHRLLRTGKISNITEHDKKFLLDYGLTKIIDLRSPFECKKAPDSQIPGVEHIDLSISTEDNTKGGKKDITKVFETYRKDQYAGFNMMCDRYRSHVMKEHAQHALHSILEVLANTKDGAIIYHCSEGKDRTGIVTVLILYLLGVDMETIRQDYLYSNYMLDNYRASRDKIMQENGENLCFRANMRILGSVSDAFLDTSLIAIHKNFGSLDNYLKEIIGVTPELRDTLRELYLED” as the sequence, how does the “soluble on expression in E. coli” value read?
**A.** not soluble

**Q.** For “MGSDKIHHHHHHMINPQWLHTFAVLVEKGNFTRTAEAIGITQAAVSQHISRLEEEYGTLFLRRPRQLEITPIGENLLTYVKDVECAQKRLQQKLIHDDAEVGDISLITPGSIGLTLFPLLIELQQAFPALNIRHRFAPDSEIVASVLANEHEIGMVTLKPSDPRIHSTHFTEEPLELVVPACHKQNEWVDLQRLGFISHPDGEAMATRLLSRKYPSNPGIQDIPCKGFTNQISLILEPVAKGLGFTVIPQYARKAFERQQDIYVVECGSQVVDTIWLIHRAEWPLSRRAQKAITFLKGKI”, which “soluble on expression in E. coli” value is on record?
**A.** not soluble

**Q.** For “MGSDKIHHHHHHMINQINFKTSHGGSREEGYIDFSASVNPYPPEWTDEMFERAKKISTFYPYYEKLEEELSDLIGEPITITAGITEALYLLGVWMRGRKVIIPKHTYGEYERISRMFGGRVIKGPNDPGKLAEFVERNSFVFFCNPNNPDGKFYREKEMKPLLDAIQDTNSILILDEAFIDFVKKPESPEGENIIRLRTFTKSYGLPGVRVGYVIGFVDAFRSVRMPWSIGSTGVAFLEFLLKDNFKHLRKTLPLIWKEKERIEKELKVKSDANFFIMKVREGIIEKLKENGILVRDCKSFGLPGYIRFSVRRREENDKLINILRKTLNT”, which “soluble on expression in E. coli” value is on record?
**A.** not soluble
